From US20230203158A1 (FLAGSHIP PIONEERING INNOVATIONS VII, published 2023)
Numbering of substitutions follows the chain as printed. Numbers in names are those of the source.

Columns and labels:
[1] = target: T1, recombinant His-tagged murine RAGE protein (ab276858 from Abcam) (murine, UniProt Q62151 23-342, limits assumed); assay: BLI, ANDbody on anti-human IgG Fc biosensors, murine RAGE at 150 nM then murine Notch2 NRR at 150 nM
T1 construct: also called murine RAGE antigen; not shown: His tag
Protocol: To test simultaneous dual antigen binding of the Notch2/RAGE ANDbodies by BLI, PRO051, PRO052 and PRO053, along with monovalent parental antibody controls were immobilized on anti-human IgG Fc biosensors and dipped into the recombinant His-tagged murine RAGE protein at 150 nM, followed by a second association step into wells containing recombinant murine Notch2 NRR at 150 nM to measure dual antigen binding. The dissociation rate was then measured by dipping the biosensors into buffer.

[2] = target: T2, mouse CDH17 (NCBI accession NP 062727.1) with a c-Myc epitope tag at the C terminus, transiently expressed in … (mouse, UniProt Q9R100 26-827); assay: flow cytometry on RAW 264.7 cells transiently expressing mouse CDH17
T2 construct: whole, on cells; also called cadherin 17
T2 sequence (looked up): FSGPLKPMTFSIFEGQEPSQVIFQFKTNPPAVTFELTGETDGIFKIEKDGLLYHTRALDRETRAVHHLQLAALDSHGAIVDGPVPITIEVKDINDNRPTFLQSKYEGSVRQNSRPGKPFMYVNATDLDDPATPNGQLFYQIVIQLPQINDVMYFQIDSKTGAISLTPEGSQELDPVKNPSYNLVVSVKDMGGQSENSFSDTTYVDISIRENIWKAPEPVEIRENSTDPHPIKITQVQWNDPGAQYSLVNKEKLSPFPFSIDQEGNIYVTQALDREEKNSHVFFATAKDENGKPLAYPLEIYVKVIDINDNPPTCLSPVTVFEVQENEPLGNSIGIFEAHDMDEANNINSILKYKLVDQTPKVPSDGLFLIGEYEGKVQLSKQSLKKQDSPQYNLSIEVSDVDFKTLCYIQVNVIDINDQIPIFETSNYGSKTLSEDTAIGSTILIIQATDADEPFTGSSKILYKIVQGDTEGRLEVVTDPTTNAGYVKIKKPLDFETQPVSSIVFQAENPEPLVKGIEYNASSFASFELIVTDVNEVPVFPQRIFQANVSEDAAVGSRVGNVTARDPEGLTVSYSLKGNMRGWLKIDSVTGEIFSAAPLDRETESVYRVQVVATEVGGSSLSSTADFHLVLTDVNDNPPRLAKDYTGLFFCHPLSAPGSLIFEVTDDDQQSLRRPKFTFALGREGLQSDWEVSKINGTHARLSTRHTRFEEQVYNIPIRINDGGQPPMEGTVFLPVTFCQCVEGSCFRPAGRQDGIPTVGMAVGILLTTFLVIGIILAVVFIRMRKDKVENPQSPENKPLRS
Source text: To confirm binding activity and specificity, mouse CDH17 (NCBI accession NP 062727.1) with a c-Myc epitope tag at the protein C terminus was transiently expressed in RAW 264.7 cells using LIPOFECTAMINE™ 3000 (ThermoFisher Scientific) according to the manufacturer's protocol.

[3] = target: IL-10 receptor of HEK-BLUE IL-10 cells (the cells express all the components of the IL-10 signaling pathway); assay: cell-based or functional assay
[4] = target: T3, DSG1 stably expressed on HEK-BLUE IL-10 cells (called human DSG1; DSG1 gene NP_034209.2) (human, UniProt Q02413 50-1049); assay: cell-based or functional assay
T3 sequence (looked up): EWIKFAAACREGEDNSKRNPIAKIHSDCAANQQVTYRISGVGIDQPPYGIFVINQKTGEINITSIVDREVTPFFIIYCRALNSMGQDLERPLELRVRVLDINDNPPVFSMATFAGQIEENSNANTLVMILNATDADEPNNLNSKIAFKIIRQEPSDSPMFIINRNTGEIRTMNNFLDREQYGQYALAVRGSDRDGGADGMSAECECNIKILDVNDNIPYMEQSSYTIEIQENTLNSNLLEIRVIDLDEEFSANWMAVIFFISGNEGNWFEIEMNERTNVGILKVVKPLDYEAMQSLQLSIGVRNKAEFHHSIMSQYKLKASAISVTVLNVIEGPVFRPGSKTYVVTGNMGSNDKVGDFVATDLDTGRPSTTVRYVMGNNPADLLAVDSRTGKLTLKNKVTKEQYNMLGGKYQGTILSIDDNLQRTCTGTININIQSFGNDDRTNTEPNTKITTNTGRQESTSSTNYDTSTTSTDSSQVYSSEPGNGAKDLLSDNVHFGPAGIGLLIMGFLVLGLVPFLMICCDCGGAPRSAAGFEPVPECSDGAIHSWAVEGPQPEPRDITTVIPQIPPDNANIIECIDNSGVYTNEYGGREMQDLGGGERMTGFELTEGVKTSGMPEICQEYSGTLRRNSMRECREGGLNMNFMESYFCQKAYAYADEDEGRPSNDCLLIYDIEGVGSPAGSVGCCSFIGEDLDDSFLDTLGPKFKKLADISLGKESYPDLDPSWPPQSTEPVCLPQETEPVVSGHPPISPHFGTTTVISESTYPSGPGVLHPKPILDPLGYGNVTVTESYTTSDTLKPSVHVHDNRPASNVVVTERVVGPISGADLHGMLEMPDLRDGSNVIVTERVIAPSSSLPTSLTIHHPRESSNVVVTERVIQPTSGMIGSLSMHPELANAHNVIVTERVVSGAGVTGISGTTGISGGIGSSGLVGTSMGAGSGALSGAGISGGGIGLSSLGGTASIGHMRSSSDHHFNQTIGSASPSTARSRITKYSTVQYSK

T1 sequence (Q62151 23-342 limits assumed): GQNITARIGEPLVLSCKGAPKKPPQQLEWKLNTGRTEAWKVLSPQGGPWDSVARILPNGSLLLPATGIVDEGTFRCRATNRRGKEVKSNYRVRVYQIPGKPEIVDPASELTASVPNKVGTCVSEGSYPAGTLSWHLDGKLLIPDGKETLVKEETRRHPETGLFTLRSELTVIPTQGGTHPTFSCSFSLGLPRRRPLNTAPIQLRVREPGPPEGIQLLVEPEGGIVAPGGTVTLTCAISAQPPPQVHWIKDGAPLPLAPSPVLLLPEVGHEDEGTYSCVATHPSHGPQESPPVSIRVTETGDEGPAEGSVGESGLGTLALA

B1: PRO052 (Notch2/RAGE ANDbody made by controlled Fab arm exchange of PRO035 K409R and PRO002 F405L) (bispecific antibody)
heavy 1: not shown
light 1: DIQMTQSPSSLSASVGDRVTITCRASQSNRRFLAWYQQKPGKAPKLLIYGASSRASGVPSRFSGSGSGTDFTLTISSLQPEDFATYYCQQYYISPLTFGQGTKVEIKRTVAAPSVFIFPPSDEQLKSGTASVVCLLNNFYPREAKVQWKVDNALQSGNSQESVTEQDSKDSTYSLSSTLTLSKADYEKHKVYACEVTHQGLSSPVTKSFNRGEC
heavy 2: not shown
light 2: DIQMTQSPSSLSASVGDRVTITCRASQDVGIYVNWFQQKPGKAPRRLIYRATNLADGVPSRFSGSRSGTDFTLTISSLQPEDFATYYCLEFDEHPLTFGGGTKVEIKRTVAAPSVFIFPPSDEQLKSGTASVVCLLNNFYPREAKVQWKVDNALQSGNSQESVTEQDSKDSTYSLSSTLTLSKADYEKHKVYACEVTHQGLSSPVTKSFNRGEC
notes: copies: 1 + 1 + 1 + 1
[1]
  binding result: binds

B2: PRO051 (Notch2/RAGE ANDbody made by controlled Fab arm exchange of PRO034 K409R and PRO002 F405L) (bispecific antibody)
heavy 1: not shown
light 1: not shown
heavy 2: not shown
light 2: B1 light 2
notes: copies: 1 + 1 + 1 + 1
[1]
  binding result: binds

B3: PRO053 (Notch2/RAGE ANDbody made by controlled Fab arm exchange of PRO036 K409R and PRO002 F405L) (bispecific antibody)
heavy 1: not shown
light 1: B1 light 1 with N29V, R31S, G50R, S53I, L96W
heavy 2: not shown
light 2: B1 light 2
notes: copies: 1 + 1 + 1 + 1
[1]
  binding result: binds

B4: PRO061 (anti-CDH17 antibody MAB8524 on a human IgG1 LALA-PG backbone, kappa light chain) (antibody, V domains shown)
VH: QSLEESGGRLVTPGTPLTLTCTVSGFSLTSYDMNWVRQAPGKGLEWIGVVRGSGRTYYASWAKGRFTIARTSSTTVDLKMTSLTTGDTATYFCARGDANNNYYEFDIWGPGTLVTVSS
VL: QDMTQTPSPVSAAVGGTVTINCQSSQSVYGDAWLSWFQQKPGQPPKLLIYSASTLASGVPSRFKGSGSGTQFTLTISDLESDDAATYYCAGGYDGINDIRAFGGGTEVVVKR
[2]
  binding result: binds

B5: PRO026 (IL-10/DSG1 ANDbody: monomeric IL-10 replacing one Fab of the anti-DSG1 mAb) (other)
heavy: EVQLVESGGGLVQPGRSLRLSCAASGFTFDDYAMHWVRQAPGKGLEWVSGISWNSGSIDYADSVKGRFTISRDNAKNSLYLQMNSLRVEDTALYYCAKDGSRVFGVGGGFDFWGQGTMVTVSSASTKGPSVFPLAPSSKSTSGGTAALGCLVKDYFPEPVTVSWNSGALTSGVHTFPAVLQSSGLYSLSSVVTVPSSSLGTQTYICNVNHKPSNTKVDKKVEPKSCDKTHTCPPCPAPEAAGGPSVFLFPPKPKDTLMISRTPEVTCVVVDVSHEDPEVKFNWYVDGVEVHNAKTKPREEQYNSTYRVVSVLTVLHQDWLNGKEYKCKVSNKALGAPIEKTISKAKGQPREPQVYTLPPSRDELTKNQVKLTCLVKGFYPSDIAVEWESNGQPENNYKTTPPVLDSDGSFFLYSSLTVDKSRWQQGNVFSCSVMHEALHNHYTQKSLSLSPG
light: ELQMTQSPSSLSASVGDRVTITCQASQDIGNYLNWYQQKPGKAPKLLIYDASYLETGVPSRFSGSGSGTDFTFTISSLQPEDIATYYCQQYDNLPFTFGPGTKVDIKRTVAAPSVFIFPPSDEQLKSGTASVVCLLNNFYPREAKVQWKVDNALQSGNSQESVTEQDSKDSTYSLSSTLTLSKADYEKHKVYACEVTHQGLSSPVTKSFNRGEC
chain: SPGQGTQSENSCTHFPGNLPNMLRDLRDAFSRVKTFFQMKDQLDNLLLKESLLEDFKGYLGCQALSEMIQFYLEEVMPQAENQDPDIKAHVNSLGENLKTLRLRLRRCHRFLPCENGGGSGGKSKAVEQVKNAFNKLQEKGIYKAMSEFDIFINYIEAYMTMKIRNGGGGSGGGGSDKTHTCPPCPAPEAAGGPSVFLFPPKPKDTLMISRTPEVTCVVVDVSHEDPEVKFNWYVDGVEVHNAKTKPREEQYNSTYRVVSVLTVLHQDWLNGKEYKCKVSNKALGAPIEKTISKAKGQPREPQVYTLPPSRDELTKNQVSLTCLVSGFYPSDIAVEWESNGQPENNYKTTPPVLDSDGSFKLYSKLTVDKSRWQQGNVFSCSVMHEALHNHYTQKSLSLSPG
[3]
  EC50 (pM), HEK-BLUE IL-10 signaling assay (SEAP): 750 pM

B6: PRO027 (IL-10/DSG1 ANDbody: IL-10 dimer replacing one Fab of the anti-DSG1 mAb) (other)
heavy: B5 heavy
light: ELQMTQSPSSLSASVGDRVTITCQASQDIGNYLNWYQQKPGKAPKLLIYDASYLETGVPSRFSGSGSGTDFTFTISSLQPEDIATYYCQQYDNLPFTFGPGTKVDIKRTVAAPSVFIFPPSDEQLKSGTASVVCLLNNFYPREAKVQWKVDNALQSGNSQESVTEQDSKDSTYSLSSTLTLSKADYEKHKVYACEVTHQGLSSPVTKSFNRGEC
chain: SPGQGTQSENSCTHFPGNLPNMLRDLRDAFSRVKTFFQMKDQLDNLLLKESLLEDFKGYLGCQALSEMIQFYLEEVMPQAENQDPDIKAHVNSLGENLKTLRLRLRRCHRFLPCENKSKAVEQVKNAFNKLQEKGIYKAMSEFDIFINYIEAYMTMKIRNGGGSGGGSPGQGTQSENSCTHFPGNLPNMLRDLRDAFSRVKTFFQMKDQLDNLLLKESLLEDFKGYLGCQALSEMIQFYLEEVMPQAENQDPDIKAHVNSLGENLKTLRLRLRRCHRFLPCENKSKAVEQVKNAFNKLQEKGIYKAMSEFDIFINYIEAYMTMKIRNGGGGSGGGGSDKTHTCPPCPAPEAAGGPSVFLFPPKPKDTLMISRTPEVTCVVVDVSHEDPEVKFNWYVDGVEVHNAKTKPREEQYNSTYRVVSVLTVLHQDWLNGKEYKCKVSNKALGAPIEKTISKAKGQPREPQVYTLPPSRDELTKNQVSLTCLVSGFYPSDIAVEWESNGQPENNYKTTPPVLDSDGSFKLYSKLTVDKSRWQQGNVFSCSVMHEALHNHYTQKSLSLSPG
[3]
  EC50 (pM), HEK-BLUE IL-10 signaling assay (SEAP): 19 pM

B7: PRO058 (IL-10/DSG1 ANDbody in which monomeric IL-10 replaces one Fab of the anti-DSG1 mAb; functionally equivalent to PRO026, with a substitution in the Fc … (other)
heavy: B5 heavy
light: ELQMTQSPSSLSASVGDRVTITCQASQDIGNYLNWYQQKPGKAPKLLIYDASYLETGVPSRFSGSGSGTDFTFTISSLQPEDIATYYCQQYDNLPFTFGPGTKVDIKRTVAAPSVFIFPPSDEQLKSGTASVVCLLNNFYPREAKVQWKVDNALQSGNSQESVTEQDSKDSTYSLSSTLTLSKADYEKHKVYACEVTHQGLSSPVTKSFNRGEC
chain: B5 chain with H391R, Y392F
[4]
  increase in potency of IL-10 signaling (SEAP) on HEK-BLUE IL-10/DSG1 cells against parental HEK-BLUE IL-10 cells: ~15 fold
